Measured values reported in patent US20180237502A1 (INTEGRATED BIOTHERAPEUTICS, published 2018).

B1: murine monoclonal antibody 16G8 (antibody, V domains shown)
VH: EVQLQESGPGLVKPGASVKISCKASGYSFTGYYMNWVKQSPEKSLEWIGEINPSTGGTTYNQKFKAKATLTVDKSSSTAYMQLKSLTSEDSAVYYCVRYSHYYGSGSWYFDVWGTGTTVTVSS
VL: DIQMTQSPASLSASVGETVTITCRASENIYSNLAWYQQKQGKSPQLLVNAATNLADGVPSRFSGSGSGTQFSLKINSLQPEDFGSYYCQHFYVTPYMFGSGTKLEIKR
notes: also called m16G8
B2: murine monoclonal antibody 8C4 (antibody, V domains shown)
VH: EVQLQESGPELKKPGETVKISCKASGYTFTTYGMSWVKQAPGKGLKWMGRINTYSGVPTYADEFKGRFAFSLENSASTAYLQINNLKNEDTATYFCARGDGGHWFANWGQGTLVTVSA
VL: DIQMTQSPSSLSASLGGKVTITCKASQDINKNIAWYQHKPGKGPRLLIWYKSALQPGIPSRFSGSGSGRDYSFSISNLEPEDIATYSCLQYDNLPPTFGGGTKLEIKR
notes: also called m8C4
B3: murine monoclonal antibody 2D8 (antibody, V domains shown)
VH: EVQLQESGGELVRPGTSVKISCKASGYTFTNFWLGWIKERPGHGLEWIGDIYPGGHYTNYNENFKGKATLTADTSSNTAYMQVSSLTSEDSAVYFCFTQYYDMDYWGQGTSVTVSS
VL: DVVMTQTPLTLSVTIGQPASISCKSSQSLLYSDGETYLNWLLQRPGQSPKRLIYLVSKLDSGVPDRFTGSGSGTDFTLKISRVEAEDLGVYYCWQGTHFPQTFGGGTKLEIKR
B4: murine monoclonal antibody 17C6 (antibody, V domains shown)
VH: EVQLQESGPGLVQPSQSLSITCTVSGFSLTSYGVHWVRQSPGKGLEWLGVIWSGGSTDYNAAFISRLSISKDNSKSQVFFKMNSLQADDTAIYYCARNWFDYDNYYSMDYWGQGTSVTVSS
VL: DIQMTQTTSSLSASLGDRVTISCRASQDISNYLNWYQQKPDGTVKLLIYYTSRLHSGVPSRFSGSGSGTDFSLTISNQEPEDIATYYCQQYSNLPWTFGGGTKLEIKR
B5: murine monoclonal antibody 4B8 (antibody, V domains shown)
VH: EVQLQESGPGILQPSQTLSLTCSFSGFSLRTLGMGVGWIRQSSGKGLEWLAHIWWSDENYYNPALKSRLTISKDTSKNQVFLRIANVDTAETATYYCARIAYDGYFDYWGQGTSLTVSS
VL: KFPSQLLLLLLFGIPGDRVTITCKASEDIYNRLAWYQQKPGNAPRLLISGATSLETGVPSRFSGSGSGKDYTLSITSLQTEDVATYYCQQYWTTPWTFGGGTKLEIKR
notes: also called m4B8

Experiments:
SUDV GPdTM = target: T1, SUDV GPdTM (Sudan virus (SUDV), UniProt Q66814 33-637)
T1 sequence: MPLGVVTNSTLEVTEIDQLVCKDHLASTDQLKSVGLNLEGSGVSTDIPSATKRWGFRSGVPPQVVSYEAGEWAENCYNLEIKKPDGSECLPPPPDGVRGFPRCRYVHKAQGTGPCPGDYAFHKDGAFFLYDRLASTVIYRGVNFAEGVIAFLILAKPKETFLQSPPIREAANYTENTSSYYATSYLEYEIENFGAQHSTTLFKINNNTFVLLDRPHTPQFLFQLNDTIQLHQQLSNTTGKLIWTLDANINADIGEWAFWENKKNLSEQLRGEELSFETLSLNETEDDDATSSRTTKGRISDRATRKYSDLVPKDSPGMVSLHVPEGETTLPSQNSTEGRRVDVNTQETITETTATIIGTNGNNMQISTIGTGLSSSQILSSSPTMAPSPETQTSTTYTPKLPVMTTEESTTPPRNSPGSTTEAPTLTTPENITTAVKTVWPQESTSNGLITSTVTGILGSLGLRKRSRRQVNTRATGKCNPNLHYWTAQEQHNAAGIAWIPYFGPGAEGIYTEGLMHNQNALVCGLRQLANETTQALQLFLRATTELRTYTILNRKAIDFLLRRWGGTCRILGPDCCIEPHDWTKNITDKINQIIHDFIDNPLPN

MARV GPddmuc = target: T2, MARV GPddmuc (Marburg virus (MARV), UniProt P35253 19-637); test: ELISA, purified GPddmuc immobilized, serial dilutions of purified mouse mAb
T2 construct: also called Marburg virus glycoprotein GPddmuc

SUDV GPddmuc = SUDV GPddmuc (Sudan virus (SUDV), UniProt Q66814 33-632)

Row | Binder | EC50 (SUDV GPdTM) | binding result (MARV GPddmuc) | EC50 (SUDV GPddmuc)
1 | B1 | > 10 µg/mL | – | –
2 | B2 | 0.15 µg/mL | – | –
3 | B3 | > 10 µg/mL | – | –
4 | B4 | 2 µg/mL | – | –
5 | B5 | 0.088 µg/mL | no binding | 0.095 µg/mL
